Measurements taken from the supplement of paper PMC9170038.

System: MS2 coat protein
Assay: apparent KD of MS2 coat protein; designed switch direction (-1 OFF switch, 1 ON switch): -1; higher = weaker reporter binding
Summary of the method: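 Stalled E. coli RNA polymerase transcribed designed RNA switches on Illumina chips, which were then titrated with SNAP-549-labelled MS2 coat protein, doubling from 0.7 or 1.5 nM to 3 µM. Steps lasted from 0.8–1.5 h at the lowest concentration to 10–20 min at the highest. The apparent KD is each design's median over clusters of curve-fitted normalised fluorescence.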

[1] = Eterna round: R95, input ligand: FMN 200 uM
[2] = Eterna round: R95, input ligand: microRNA oligo, concentration not stated
[3] = Eterna round: R95, input ligand: none
[4] = input ligand: microRNA oligo, concentration not stated

Sequence | apparent KD of MS2 coat protein [1] [nM] | apparent KD of MS2 coat protein [2] [nM] | apparent KD of MS2 coat protein [3] [nM] | apparent KD of MS2 coat protein (input ligand: FMN 200 uM) [nM] | apparent KD of MS2 coat protein [4] [nM] | apparent KD of MS2 coat protein (input ligand: none) [nM]
AAUAAUCGAGGAUAUACUAAAAUAUGAAUAAAAUAAAUAAAACAUGAGGAUCACCCAUGUAGAAGGCGAAAUAA [JMF's Not so obvious solution 1] (puzzle: Exclusion 2) | 20.8 | 24.1 | 29.5 |  |  | 
CUUUUGUGAGGAUAUCUGUAGUAAAAAAAUAAAAUUACUACUGAGAAGGCACAUGAGGAUCACCCAUGUUCCUC [salish99_ex4_r3_035] (puzzle: Exclusion 4) |  | 34 |  |  |  | 
UGAGUGCUGCGAGGAUAUACAUGAGGAUCACCCAUGUAAUCGUGUGAGGCAAAGCCUCACACGAUGUAGAAGGCGCAGUACUCU [Mat - Exclusion NG 2 - Mod of JL - D23] (Eterna round: R96, puzzle: Exclusion NG 2) |  |  |  | 12.8 | 11.4 | 18.2
AUCGUGUGAGGAUAUCGAUGUUGGACGUCUAGGUCUAAGCGCGAGAAGGCACAUGAGGAUCACCCAUGUAAUGG [jl-ex4-4.27 ViennaUCT mod] (Eterna round: R97, puzzle: Exclusion 4) |  |  |  | 249 |  | 910
GUCAGGAAAGGAUAUACAAGUAGUCACUCUCUUUGCAGUUCACAUGAGGAUCACCCAUGUAGAAGGUUCGGACG [EX2 C.9] (Eterna round: R97, puzzle: Exclusion 2) |  |  |  | 38.9 |  | 14.1
AGUGUGUCAGGAUAUUCUAUUAAUUACAUGAGGAUCACCCAUGUGAAUGGACAAGGGUGUGAAGAAGGGACGUGCG [Omei Ex5 A17e] (Eterna round: R97, puzzle: Exclusion 5) |  |  |  | 211 |  | 381
CUGCUGGAGUUUCGCUUUGGUCGUACAUGAGGAUCACCCAUGUAGGAUAUGGUAAAAUUCGCCUGCUAGAAGGAUAGAGUGGUC [salish99_ExNG3_r04_620] (Eterna round: R96, puzzle: Exclusion NG 3) |  |  |  | 48.1 | 38.6 | 42.3
GCGUUCUGAGGAUAUACAUGAGGAUCACCCAUGUUGAGAAUUAUGUAUAAAAGAUUAUGUAGAAGGCAGAGUGC [JR_Ex3_Sub071] (Eterna round: R97, puzzle: Exclusion 3) |  |  |  | 140 |  | 716
CCCUCACAUGAGGAUCACCCAUGUCAGGAUAUCUCAGUGCAUCCACACGGACGCAUCAAGAGAAGGGACAAAAC [Ququ] (Eterna round: R97, puzzle: Exclusion 1) |  |  |  | 27.8 |  | 18.4
GUCAUGUAAGGAUAUCUUACAUGUGACUUCGGUCACUGUCAAGAGAAGGUACAUGAGGAUCACCCAUGUUCGAC [Ex4-3: 52] (puzzle: Exclusion 4) |  | 16.2 |  |  |  | 
UGUUGUUACGCAGGAUAUGAGGAUCACCCAUAGAAGGAUAUCGAAAGAGAAGGUCUGAGGAUUACCCAGAAGGGCGGGUUAACA [pwkr exNG2 2xF5 2xFMN.1] (Eterna round: R96, puzzle: Exclusion NG 2) |  |  |  | 714 | 153 | 139
GUGAAGUGAGGAUAUACGAGAGAGGCUGAACCUGGAGAGAAGUAGAAGGCACAUGAGGAUCACCCAUGUAAGGA [JR_Exclu4_Sub020] (puzzle: Exclusion 4) | 36.7 | 36.1 | 34.4 |  |  | 
UGAACUGUAGGAUAUACAUGAGGAUCACCCAUGUCCCUUCGAUGAGGUCCCACCACGUGUAGAAGGAUGGAAGA [Eternabot (L1) Solution 11] (Eterna round: R97, puzzle: Exclusion 3) |  |  |  | 36.8 |  | 42.2
CCAACUAAUUAGGAUAUUAAGGACAUCAGUAAGUAAGAAGGGAUUACAUGAGGAUCACCCAUGUGGUCCUCGGG [Eternabot (L2) Solution 57] (Eterna round: R97, puzzle: Exclusion 6) |  |  |  | 226 |  | 147
UGUAUACAUGAGGAUCACCCAUGUAAGGAUAUGCUUUAUUAUUAUUAUUAUUAUUGUUGCAGAAGGUACAUUAU [LRO-Excl01-07] (Eterna round: R97, puzzle: Exclusion 1) |  |  |  | 26.4 |  | 25.6
AGCCACAGAGGAUAUACAUACAUCCAGUAGUAGAGAAUACUACAUGAGGAUCACCCAUGUAGAAGGCUGUGGCA [Omei Ex2 BD B14] (Eterna round: R97, puzzle: Exclusion 2) |  |  |  | 316 |  | 438
CAAUAGGGAGGAUAUCCAAUAUAUGACAUGAGGAUCACCCAUGUUUCCACUCGUACCUCCGGAGAAGGCCCAUAAG [Ex5 #6] (Eterna round: R97, puzzle: Exclusion 5) |  |  |  | 21.3 |  | 24.1

Sequence | apparent KD of MS2 coat protein [1] [nM] | apparent KD of MS2 coat protein [2] [nM] | apparent KD of MS2 coat protein [3] [nM] | apparent KD of MS2 coat protein (input ligand: FMN 200 uM) [nM] | apparent KD of MS2 coat protein [4] [nM] | apparent KD of MS2 coat protein (input ligand: none) [nM]
AAGAAACAUGAGGAUCACCCAUGUGAGGAUAUGAUAAAGAAAAGAAAAGAAAGAAGAAUCAGAAGGCACAAAGG [salish99-ex1_r3_031] (puzzle: Exclusion 1) | 129 | 51 | 54 |  |  | 
CUACUAGAGACGCGUGGGAACAUGAGGAUCACCCAUGUCAAUGGAGUUUAAACAGGCCCGUCGUUUUGCUCGUCGUG [Eternabot (L2) Solution 41] (Eterna round: R97, puzzle: Sensor, turn-off variant 1) |  |  |  | 113 |  | 132
UCAUGUCCUGAGGAUAUGUAGCGGAUAAACGCAACAGAAGGCAGGACAUGAGGAUCACCCAUGUGCGCCUUUCA [Exclusion 6 Mod2 of JL of Mod of Letion by ViennaUCT] (Eterna round: R97, puzzle: Exclusion 6) |  |  |  | 26.7 |  | 84.5
CAGUACUGAGGAUAUACAUGAGGAUCACCCAUGUGAUUUGGUGCACGCGUACGUGUACGUAGAAGGCAGUACUG [JL 3.27 m5] (Eterna round: R97, puzzle: Exclusion 3) |  |  |  | 363 |  | 24.2
AACCUGAGGCUUUGCUUUAGGUAUACAUGAGGAUCACCCAUGUAGGAUAUGGUAGGCUUUGCUUACCAGAAGGACAUGUUAAUU [JL ENG3 1.10] (Eterna round: R96, puzzle: Exclusion NG 3) |  |  |  | 136 | 41.7 | 44.2
AACAAGGGUUAAUGUACGGACAUGAGGAUCACCCAUGUCCACGGAUGUGUGGAGAGGUCCUCUUUGGCUCGUCUUAU [Cac Sensor turn off var1 sub10] (Eterna round: R97, puzzle: Sensor, turn-off variant 1) |  |  |  | 47.8 |  | 87.8
UCGAUGUGAGGAUAUAUAUGCAGUAAUCCUUAUAUUUUAUAACUUGAGGAUCACCCAAGUAGAAGGCGCGACGU [JR_Ex2_Sub058] (Eterna round: R97, puzzle: Exclusion 2) |  |  |  | 27.3 |  | 31.1
UAGAUGGGAGGAUAUACGUAGAUACAGAUUCAUGUAGUGCUACAUGAGGAUCACCCAUGUAGAAGGCCCGUCUU [JL-ex2-2.19 Mayanne mod] (puzzle: Exclusion 2) |  | 35.2 |  |  |  | 
GUGCAGCGAGGAUAUCCAGACGGGUCCAGUACGUGUCUUGGACUUGAGGAUCACCCAAGUAGAAGGCGUCUCAG [salish99_ex2_r4_611] (Eterna round: R97, puzzle: Exclusion 2) |  |  |  | 50.9 |  | 114
CCGAUGUCAGGAUAUCGUGCAUACAACGAAAGUUCUAUGUGCGAGAAGGGACAUGAGGAUCACCCAUGUUACGG [Omei Ex4 A2] (Eterna round: R97, puzzle: Exclusion 4) |  |  |  | 131 |  | 465
AGGUGCUUCUGGAGACAUGAGGAUCACCCAUGUUGAGUUAGCGAGGAUAUCGGUAACCAUUGUUAUGAGAAGGCGCAAACCAGA [Ex NG3 #40] (Eterna round: R96, puzzle: Exclusion NG 3) |  |  |  | 22.9 | 10.5 | 27.8
GGUGUCUUCAGAAGACAUGAGGAUCACCCAUGUAAAUGCACUGAGGAUAUACGGGCGACCGGCGUGUAGAAGGUAGAGCACGAA [Bivezale] (Eterna round: R96, puzzle: Exclusion NG 3) |  |  |  | 13.7 | 8.37 | 17.5
AAUUAGUGAGGAUAUUUGAACAGUGGCAGUAGCCAGUGCAUGAAGAAGGCACAUGAGGAUCACCCAUGUUAUAA [EX4 #58] (Eterna round: R97, puzzle: Exclusion 4) |  |  |  | 70.5 |  | 39.8
GCCGAAAAAGUGAGGAUAUACCUAUGGAAACAUAGGUAGAAGGCACAUGAGGAUCACCCAUGUAUCCUAACGGC [Mat - Exclusion 4 - Eli Mod - D28] (Eterna round: R97, puzzle: Brourd's mod of Exclusion 4) |  |  |  | 268 |  | 28.5
UUUAAUUUUUUUUUUUUACAAGCUUUUUGCUCGUCUUAUACAUGAGGAUCACCCAUGUAAAUGGAAGAUAAAUUAUC [JMF 7] (puzzle: Sensor v3, turn-off variant 2) | 16.7 | 18.1 | 17.3 |  |  | 
CGACCACAUGUAAACUGACACAUGAGGAUCACCCAUGUCAAGCUACGUUAGACUAAGCUCGCUACUACUCGUCUUAA [Eternabot (L2) Solution 4] (Eterna round: R97, puzzle: Sensor, turn-off variant 1) |  |  |  | 66.8 |  | 69.8
ACUGUUGCAGGAUAUAUGGUGCUAGACAUGAGGAUCACCCAUGUAGGCCUUGUCUAGCAGGUAGAAGGGCACCCAC [Eternabot (L1) Solution 94] (Eterna round: R97, puzzle: Exclusion 5) |  |  |  | 503 |  | 224
